Data published in patent US20100184658A1 (published 2010).

Key:
Test in all cases: cell-based or functional assay
[1] = biological target: RPS6KA3 (RSK2) Ribosomal protein S6 kinase, 90 kDa, polypeptide 3 (UniProt P51812 1-740, limits assumed)
[2] = biological target: MAPK9 (JNK2) Mitogen-activated protein kinase 9 (UniProt P45984 1-424, limits assumed)
[3] = biological target: SRPK2 (UniProt P78362 1-688, limits assumed)
[4] = biological target: T1, PRKCI (PKC iota) (UniProt P41743 1-596, limits assumed)
T1 sequence (looked up): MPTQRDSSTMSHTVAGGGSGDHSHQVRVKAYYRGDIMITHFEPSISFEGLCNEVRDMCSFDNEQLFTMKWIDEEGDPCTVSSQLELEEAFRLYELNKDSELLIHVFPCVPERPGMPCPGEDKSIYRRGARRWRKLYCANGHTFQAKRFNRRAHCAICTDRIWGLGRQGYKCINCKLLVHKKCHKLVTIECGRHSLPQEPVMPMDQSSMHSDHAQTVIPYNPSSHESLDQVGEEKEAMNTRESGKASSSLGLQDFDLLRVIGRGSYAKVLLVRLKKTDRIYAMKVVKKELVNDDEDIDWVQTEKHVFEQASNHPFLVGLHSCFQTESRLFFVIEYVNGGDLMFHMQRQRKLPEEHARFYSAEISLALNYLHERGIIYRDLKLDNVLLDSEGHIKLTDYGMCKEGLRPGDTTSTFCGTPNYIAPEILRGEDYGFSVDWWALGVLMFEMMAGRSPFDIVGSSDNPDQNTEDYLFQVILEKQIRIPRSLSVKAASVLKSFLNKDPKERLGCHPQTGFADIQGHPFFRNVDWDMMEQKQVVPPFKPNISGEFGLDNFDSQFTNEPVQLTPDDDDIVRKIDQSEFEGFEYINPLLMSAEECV

[5] = biological target: TEK (Tie2) Tyrosine kinase, endothelial (UniProt Q02763 771-1124, limits assumed)
[6] = biological target: CAMK2B (CaMKII beta) (UniProt Q13554 1-666, limits assumed)
[7] = biological target: STK24 (MST3) Serine/threonine kinase 24 (STE20 homolog, yeast) (UniProt Q9Y6E0 1-443, limits assumed)
[8] = biological target: MELK (UniProt Q14680 1-340, limits assumed)
[9] = biological target: PKN1 (PRK1) (UniProt Q16512 1-942, limits assumed)
[10] = biological target: T2, PRKCN (PKD3) (UniProt O94806 1-890, limits assumed)
T2 sequence (looked up): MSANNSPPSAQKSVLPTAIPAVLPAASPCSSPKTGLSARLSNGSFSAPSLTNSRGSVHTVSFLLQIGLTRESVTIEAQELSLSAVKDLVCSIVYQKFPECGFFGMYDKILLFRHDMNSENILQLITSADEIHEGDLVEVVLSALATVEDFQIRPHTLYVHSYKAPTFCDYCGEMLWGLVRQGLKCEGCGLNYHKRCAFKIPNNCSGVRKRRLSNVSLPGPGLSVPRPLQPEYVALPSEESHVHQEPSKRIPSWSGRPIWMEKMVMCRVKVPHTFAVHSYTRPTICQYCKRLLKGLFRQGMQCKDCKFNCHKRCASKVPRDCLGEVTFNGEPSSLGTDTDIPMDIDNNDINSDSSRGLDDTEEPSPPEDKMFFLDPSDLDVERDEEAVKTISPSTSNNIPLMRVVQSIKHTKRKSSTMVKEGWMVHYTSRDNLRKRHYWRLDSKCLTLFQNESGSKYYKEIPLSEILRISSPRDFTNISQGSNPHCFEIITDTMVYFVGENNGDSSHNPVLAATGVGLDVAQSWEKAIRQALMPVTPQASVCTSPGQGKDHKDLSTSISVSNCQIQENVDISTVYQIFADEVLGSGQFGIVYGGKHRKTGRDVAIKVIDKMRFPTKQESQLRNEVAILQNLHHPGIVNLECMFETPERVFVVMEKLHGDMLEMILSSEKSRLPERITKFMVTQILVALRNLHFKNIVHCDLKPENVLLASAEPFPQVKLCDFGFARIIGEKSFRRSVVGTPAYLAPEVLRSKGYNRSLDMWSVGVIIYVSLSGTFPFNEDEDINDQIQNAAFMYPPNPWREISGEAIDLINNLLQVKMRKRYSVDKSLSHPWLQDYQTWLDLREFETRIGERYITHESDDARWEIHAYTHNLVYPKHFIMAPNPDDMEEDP

[11] = biological target: T3, CAMK4 (CaMKIV) Calcium/calmodulin-dependent protein kinase IV (UniProt Q16566 1-473, limits assumed)
T3 sequence (looked up): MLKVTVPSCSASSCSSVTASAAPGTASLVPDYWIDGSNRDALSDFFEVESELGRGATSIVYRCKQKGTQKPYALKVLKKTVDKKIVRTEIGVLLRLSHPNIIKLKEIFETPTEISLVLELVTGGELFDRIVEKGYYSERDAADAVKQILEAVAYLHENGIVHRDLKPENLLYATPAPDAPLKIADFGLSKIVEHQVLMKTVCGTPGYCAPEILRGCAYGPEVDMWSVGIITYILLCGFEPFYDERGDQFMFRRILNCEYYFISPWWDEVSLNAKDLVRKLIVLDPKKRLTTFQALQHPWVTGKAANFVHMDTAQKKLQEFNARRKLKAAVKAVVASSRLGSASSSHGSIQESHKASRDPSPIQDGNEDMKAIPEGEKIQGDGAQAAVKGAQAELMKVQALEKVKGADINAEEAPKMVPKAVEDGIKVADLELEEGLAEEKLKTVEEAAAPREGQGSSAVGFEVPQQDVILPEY

[12] = biological target: MAP3K9 (MLK1) Mitogen-activated protein kinase kinase kinase 9 (UniProt P80192 132-413, limits assumed)
Note: test concentration or dose not given here.

Sequence of RPS6KA3 (RSK2) Ribosomal protein S6 kinase, 90 kDa, polypeptide 3 (P51812 whole entry): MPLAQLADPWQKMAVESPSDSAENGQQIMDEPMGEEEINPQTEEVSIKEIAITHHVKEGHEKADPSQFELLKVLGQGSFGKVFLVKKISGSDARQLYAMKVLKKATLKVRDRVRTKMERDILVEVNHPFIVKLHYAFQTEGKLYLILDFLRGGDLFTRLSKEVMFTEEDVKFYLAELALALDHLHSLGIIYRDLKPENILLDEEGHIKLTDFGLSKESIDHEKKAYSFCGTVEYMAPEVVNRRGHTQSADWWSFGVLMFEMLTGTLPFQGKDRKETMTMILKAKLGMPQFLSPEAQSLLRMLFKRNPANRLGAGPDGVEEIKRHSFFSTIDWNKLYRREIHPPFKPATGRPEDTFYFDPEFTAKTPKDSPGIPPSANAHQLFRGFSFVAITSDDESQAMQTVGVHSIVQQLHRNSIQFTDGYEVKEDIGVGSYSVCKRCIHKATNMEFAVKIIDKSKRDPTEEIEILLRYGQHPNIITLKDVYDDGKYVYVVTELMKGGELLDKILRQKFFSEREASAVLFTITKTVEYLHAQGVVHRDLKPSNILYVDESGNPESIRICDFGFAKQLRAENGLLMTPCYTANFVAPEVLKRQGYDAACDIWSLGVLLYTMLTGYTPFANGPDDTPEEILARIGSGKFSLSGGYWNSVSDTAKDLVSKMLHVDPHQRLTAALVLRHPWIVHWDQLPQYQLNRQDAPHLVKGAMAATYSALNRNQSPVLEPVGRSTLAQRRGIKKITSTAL
Sequence of SRPK2 (P78362 whole entry): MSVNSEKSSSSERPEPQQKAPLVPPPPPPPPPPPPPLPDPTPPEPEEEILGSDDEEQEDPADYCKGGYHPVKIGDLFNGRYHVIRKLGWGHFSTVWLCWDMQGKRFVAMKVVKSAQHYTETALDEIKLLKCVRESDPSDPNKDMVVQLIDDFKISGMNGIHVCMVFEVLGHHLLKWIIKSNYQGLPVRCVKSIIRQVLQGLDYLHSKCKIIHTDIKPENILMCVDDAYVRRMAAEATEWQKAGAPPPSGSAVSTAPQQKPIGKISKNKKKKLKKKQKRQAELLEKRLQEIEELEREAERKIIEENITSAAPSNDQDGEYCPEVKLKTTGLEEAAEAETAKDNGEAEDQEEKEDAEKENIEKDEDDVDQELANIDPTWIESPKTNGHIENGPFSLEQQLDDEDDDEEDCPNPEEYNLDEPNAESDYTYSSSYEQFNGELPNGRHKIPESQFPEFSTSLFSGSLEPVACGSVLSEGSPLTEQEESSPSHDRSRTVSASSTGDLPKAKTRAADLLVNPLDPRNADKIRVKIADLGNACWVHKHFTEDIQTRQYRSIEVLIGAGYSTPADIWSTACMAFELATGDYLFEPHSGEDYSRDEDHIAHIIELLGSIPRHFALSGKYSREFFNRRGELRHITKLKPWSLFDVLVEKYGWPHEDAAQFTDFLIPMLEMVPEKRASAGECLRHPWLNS
Sequence of PKN1 (PRK1) (Q16512 whole entry): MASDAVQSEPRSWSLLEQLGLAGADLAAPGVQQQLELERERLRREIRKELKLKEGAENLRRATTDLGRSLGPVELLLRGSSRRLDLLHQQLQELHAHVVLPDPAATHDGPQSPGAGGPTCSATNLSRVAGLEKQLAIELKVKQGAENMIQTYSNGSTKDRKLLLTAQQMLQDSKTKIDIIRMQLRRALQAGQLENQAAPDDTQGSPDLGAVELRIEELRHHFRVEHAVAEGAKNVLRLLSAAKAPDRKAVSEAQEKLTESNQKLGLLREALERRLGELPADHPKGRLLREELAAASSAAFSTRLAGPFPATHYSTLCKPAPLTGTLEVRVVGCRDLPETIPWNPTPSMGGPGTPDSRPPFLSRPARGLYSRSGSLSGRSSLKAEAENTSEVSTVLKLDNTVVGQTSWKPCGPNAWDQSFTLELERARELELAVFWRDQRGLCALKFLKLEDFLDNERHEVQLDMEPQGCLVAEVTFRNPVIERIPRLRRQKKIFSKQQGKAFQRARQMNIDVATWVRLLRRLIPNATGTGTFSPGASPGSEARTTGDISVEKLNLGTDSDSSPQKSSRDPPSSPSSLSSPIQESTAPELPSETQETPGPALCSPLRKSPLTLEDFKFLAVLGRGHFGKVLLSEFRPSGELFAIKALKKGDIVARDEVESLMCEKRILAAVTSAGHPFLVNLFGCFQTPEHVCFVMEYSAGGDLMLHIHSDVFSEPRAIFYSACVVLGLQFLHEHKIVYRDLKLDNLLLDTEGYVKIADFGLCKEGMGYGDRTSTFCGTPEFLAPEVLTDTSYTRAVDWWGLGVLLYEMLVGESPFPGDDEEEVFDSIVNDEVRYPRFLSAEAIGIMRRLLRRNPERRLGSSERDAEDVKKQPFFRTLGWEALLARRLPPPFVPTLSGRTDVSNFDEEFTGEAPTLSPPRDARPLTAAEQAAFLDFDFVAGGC
Sequence of STK24 (MST3) Serine/threonine kinase 24 (STE20 homolog, yeast) (Q9Y6E0 whole entry): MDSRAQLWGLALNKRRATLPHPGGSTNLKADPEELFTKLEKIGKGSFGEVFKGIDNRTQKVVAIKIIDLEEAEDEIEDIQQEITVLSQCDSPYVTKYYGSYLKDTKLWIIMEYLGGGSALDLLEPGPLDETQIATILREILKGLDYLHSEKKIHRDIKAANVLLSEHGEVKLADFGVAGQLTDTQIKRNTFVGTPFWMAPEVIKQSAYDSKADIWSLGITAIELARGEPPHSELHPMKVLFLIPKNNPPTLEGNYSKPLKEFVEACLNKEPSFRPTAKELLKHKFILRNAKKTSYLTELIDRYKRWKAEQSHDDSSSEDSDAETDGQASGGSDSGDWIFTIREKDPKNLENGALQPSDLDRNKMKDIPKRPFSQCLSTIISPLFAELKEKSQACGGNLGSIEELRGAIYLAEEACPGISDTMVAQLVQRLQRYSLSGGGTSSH
Sequence of CAMK2B (CaMKII beta) (Q13554 whole entry): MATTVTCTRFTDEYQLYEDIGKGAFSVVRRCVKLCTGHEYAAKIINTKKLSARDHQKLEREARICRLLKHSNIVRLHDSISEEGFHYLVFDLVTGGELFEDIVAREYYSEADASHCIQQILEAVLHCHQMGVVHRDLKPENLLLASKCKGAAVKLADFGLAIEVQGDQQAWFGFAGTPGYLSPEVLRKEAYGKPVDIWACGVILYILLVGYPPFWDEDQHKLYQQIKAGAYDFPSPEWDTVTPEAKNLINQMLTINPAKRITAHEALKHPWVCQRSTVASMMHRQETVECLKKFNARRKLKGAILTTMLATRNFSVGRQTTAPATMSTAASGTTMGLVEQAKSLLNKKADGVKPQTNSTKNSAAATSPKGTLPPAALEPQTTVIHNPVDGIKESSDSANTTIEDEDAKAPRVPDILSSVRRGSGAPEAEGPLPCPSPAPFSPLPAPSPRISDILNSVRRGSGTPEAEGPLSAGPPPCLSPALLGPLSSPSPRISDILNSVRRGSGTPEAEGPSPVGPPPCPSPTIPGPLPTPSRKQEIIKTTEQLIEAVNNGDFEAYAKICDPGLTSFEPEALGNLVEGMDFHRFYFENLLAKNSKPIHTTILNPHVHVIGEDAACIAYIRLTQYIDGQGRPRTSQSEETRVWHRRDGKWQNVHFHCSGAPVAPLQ
Sequence of MAP3K9 (MLK1) Mitogen-activated protein kinase kinase kinase 9 (P80192 132-413 limits assumed): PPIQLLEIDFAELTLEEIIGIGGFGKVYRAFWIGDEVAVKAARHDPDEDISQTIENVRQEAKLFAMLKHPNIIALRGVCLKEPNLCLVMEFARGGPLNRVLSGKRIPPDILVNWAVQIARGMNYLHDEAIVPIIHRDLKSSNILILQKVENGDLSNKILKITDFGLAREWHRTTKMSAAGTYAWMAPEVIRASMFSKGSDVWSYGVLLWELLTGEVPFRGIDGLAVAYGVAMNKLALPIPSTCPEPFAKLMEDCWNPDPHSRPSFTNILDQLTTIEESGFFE
Sequence of TEK (Tie2) Tyrosine kinase, endothelial (Q02763 771-1124 limits assumed): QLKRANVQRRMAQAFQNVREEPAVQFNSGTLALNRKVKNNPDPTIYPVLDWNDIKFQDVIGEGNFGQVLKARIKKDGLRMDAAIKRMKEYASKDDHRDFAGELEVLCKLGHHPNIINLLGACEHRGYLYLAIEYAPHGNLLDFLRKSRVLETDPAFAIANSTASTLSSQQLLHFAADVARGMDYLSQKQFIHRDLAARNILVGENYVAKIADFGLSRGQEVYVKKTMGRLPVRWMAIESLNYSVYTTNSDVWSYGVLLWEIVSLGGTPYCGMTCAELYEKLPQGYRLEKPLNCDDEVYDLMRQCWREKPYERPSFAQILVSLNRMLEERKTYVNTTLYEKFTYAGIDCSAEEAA
Sequence of MELK (Q14680 1-340 limits assumed): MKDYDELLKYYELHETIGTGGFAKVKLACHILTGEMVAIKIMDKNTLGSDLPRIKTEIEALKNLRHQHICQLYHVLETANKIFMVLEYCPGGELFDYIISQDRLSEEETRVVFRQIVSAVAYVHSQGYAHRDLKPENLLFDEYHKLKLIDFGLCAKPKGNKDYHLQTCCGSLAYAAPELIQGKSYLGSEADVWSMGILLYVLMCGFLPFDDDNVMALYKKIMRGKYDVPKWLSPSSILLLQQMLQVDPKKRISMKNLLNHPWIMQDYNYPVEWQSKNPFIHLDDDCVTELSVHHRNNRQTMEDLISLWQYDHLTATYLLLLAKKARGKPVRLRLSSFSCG

Binder: SGRPPMIVWFNRPFLIAVSHTHGQTILFMAKVINPVGA [D3 peptide]
- % Inhibition mean [1]: 93%
- % Inhibition mean [2]: 92.9%
- % Inhibition mean [3]: 79.2%
- % Inhibition mean [4]: 48.9%
- % Inhibition mean [5]: 67%
- % Inhibition mean [6]: 90.3%
- % Inhibition mean [7]: 98.6%
- % Inhibition mean [8]: 85.8%
- % Inhibition mean [9]: 64%
- % Inhibition mean [10]: 69.6%
- % Inhibition mean [11]: 99.6%
- % Inhibition mean [12]: 101%
